Measured values reported in US20210253697A1 (Novo Nordisk, published 2021).

Target: T1, cynomolgus TREM-1 (cTREM-1 protein, SPR analyte of Examples 9 and 11) (cynomolgus monkey)
T1 construct: Soluble analyte; also called cyno TREM1
T1 chain: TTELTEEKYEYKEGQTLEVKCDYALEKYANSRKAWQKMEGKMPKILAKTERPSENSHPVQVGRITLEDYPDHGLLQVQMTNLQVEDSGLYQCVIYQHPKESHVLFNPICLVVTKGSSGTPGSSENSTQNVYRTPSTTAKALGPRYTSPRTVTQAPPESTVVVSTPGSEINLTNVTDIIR
Experiment: SPR, mAb captured, cTREM-1 analyte
Procedure: Binding studies were performed on a ProteOn Analyzer (BioRad) that measures molecular interactions in real time through surface plasmon resonance. Experiments were run at 25° C. and the samples were stored at 15° C. in the sample compartment. The signal (RU, response units) reported by the ProteOn is directly correlated to the mass on the individual sensor chip surfaces in six parallel flow cells. Anti-human Fc monoclonal or anti-murine Fc polyclonal antibody from Biacore human or mouse Fc capture kits were immobilized in horizontal direction onto flow cells of a GLM sensor chip according to the manufacturer's instructions. The final immobilization level of capture antibody was approximately 2600-6000 RU in different experiments. […] The GLM surface was regenerated after each injection cycle of analyte via two 18 s injections of 10 mM Glycine, pH 1.7 and 50 mM NaOH at 100 μl/min. This regeneration step removed the anti-TREM-1 antibody and any bound TREM-1 protein from the immobilized capture antibody surface, and allowed for the subsequent binding of the next interaction sample pair.

B1: mAb 0121 (antibody, V domains shown)
VH: EVQLVESGGGLVQPGGSLKLSCAASGFTFSTYAMHWVRQASGKGLEWVGRIRTKSSNYATYYAASVKGRFTISRDDSKNTAYLQMNSLKTEDTAVYYCVRDMGQRRQFAYWGQGTLVTVSS
VL: DIVMTQSPDSLAVSLGERATINCRASESVDTFDYSFLHWYQQKPGQPPKLLIYRASNLESGVPDRFSGSGSGTDFTLTISSLQAEDVAVYYCQQSNEDPYTFGQGTKLEIK
notes: recombinant; also called 14F113/14F69 hz variant HC T93V; 14F113 hz variant HC T93V
Kd: 940 pM
